Literature values in PMC5828189.

Target: C1q globular head (gC1q) (Homo sapiens) (UniProt P02745)
Chain of UniProt P02745 (P02745 23-245, chain 1 of 3): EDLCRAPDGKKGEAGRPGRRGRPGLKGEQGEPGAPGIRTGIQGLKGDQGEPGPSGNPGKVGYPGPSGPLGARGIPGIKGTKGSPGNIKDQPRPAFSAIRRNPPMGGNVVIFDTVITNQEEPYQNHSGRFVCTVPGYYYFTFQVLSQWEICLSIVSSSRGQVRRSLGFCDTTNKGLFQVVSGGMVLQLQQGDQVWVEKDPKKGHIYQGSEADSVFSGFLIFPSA
Chain of UniProt P02745 (P02746 28-253, chain 2 of 3, further chain): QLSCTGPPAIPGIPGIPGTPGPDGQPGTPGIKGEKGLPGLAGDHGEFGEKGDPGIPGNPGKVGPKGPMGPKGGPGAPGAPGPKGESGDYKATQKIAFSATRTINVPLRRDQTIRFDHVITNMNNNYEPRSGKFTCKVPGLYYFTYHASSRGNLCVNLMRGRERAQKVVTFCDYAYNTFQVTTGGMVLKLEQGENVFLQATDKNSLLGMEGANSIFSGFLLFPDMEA
Chain of UniProt P02745 (P02747 29-245, chain 3 of 3, further chain): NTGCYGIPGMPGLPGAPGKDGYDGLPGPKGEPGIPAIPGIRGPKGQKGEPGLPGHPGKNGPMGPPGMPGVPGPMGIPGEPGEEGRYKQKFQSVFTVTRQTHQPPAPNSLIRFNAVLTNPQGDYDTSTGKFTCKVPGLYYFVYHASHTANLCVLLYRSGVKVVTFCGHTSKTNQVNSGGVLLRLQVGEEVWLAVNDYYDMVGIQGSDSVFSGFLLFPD

Kd: 75 nM
Substance: HABP1/p32/gC1qR (from UniProt Q07021)
